Starred links: 1 amine or outer side, 2 acyl side, 3 side chain; linkers in the order of their positions; H or OH if unused. Positions of bridges follow the written chain, without caps; N, C: chain ends. Non-standard residues stand in square brackets, D forms with d. Groups on a side chain read outwards from the residue. Primed or numbered codes have the meaning given here. ξ: configuration not given here. *: point of attachment. Af3(HySuc) = 3-amino-L-phenylalanine acylated on the ring amine with 2-(3,6-dioxo-1,2,3,6-tetrahydropyridazin-4-yl)acetic acid, O=C(Cc1cc(=O)[nH][nH]c1=O)Nc1cccc(C[C@H](N[*:1])C(=O)[*:2])c1; af3(ac-glu) = lower case: 3-amino-D-phenylalanine, ring amine acylated with N-acetyl-D-glutamic acid, CC(=O)N[C@H](CCC(=O)[*:3])C(=O)Nc1cccc(C[C@@H](N[*:1])C(=O)[*:2])c1; af3(ac-asp) = lower case: 3-amino-D-phenylalanine, ring amine acylated with N-acetyl-D-aspartic acid, CC(=O)N[C@H](CC(=O)[*:3])C(=O)Nc1cccc(C[C@@H](N[*:1])C(=O)[*:2])c1; Af3(MSAc) = 3-aminophenylalanine with 2-methanesulfonylacetyl on the ring amine, CS(=O)(=O)CC(=O)Nc1cccc(C[C@H](N[*:1])C(=O)[*:2])c1; Af3(Iva) = 3-aminophenylalanine with isovaleryl on the ring amine, CC(C)CC(=O)Nc1cccc(C[C@H](N[*:1])C(=O)[*:2])c1; Af3(Ac-Asp) = 3-aminophenylalanine acylated on the ring amine with N-acetyl-aspartic acid; DOTA(In) = O=C1CN2CCN3CCN(CC(=O)*)CCN(CC2)CC(=O)[O][In]([O]1)[O]C(=O)C3; APAc″ = 2-(4-(amino)piperidin-1-yl)acetic acid, NC1CCN(CC(=O)*)CC1; DOTA = O=C(O)CN1CCN(CC(=O)O)CCN(CC(=O)*)CCN(CC(=O)O)CC1; Trp(5-Cl) = N[C@@H](Cc1c[nH]c2ccc(Cl)cc12)C(=O)O; Phe(3,4-Cl2) = N[C@@H](Cc1ccc(Cl)c(Cl)c1)C(=O)O; Phe(3-CF3) = N[C@@H](Cc1cccc(C(F)(F)F)c1)C(=O)O; ξTrp(7-Me) = Cc1cccc2c(CC(N)C(=O)O)c[nH]c12; ξTrp(1-Me) = Cn1cc(CC(N)C(=O)O)c2ccccc21; Ttds(3) = NCCCOCCOCCOCCCNC(=O)CCC(=O)*; dmo = (R)-dimethylornithine (D form); mXylylene = c1cc(C[*:1])cc(C[*:2])c1; Orn(Me2) = CN(C)CCC[C@H](N)C(=O)O; Isovaleryl = CC(C)CC(=O)*; dPip = O=C(O)[C@H]1CCCCN1; hSer = N[C@@H](CCO)C(=O)O; Ac6c = NC1(C(=O)O)CCCCC1; Nle = CCCC[C@H](N)C(=O)O; dNMeA = CN[C@H](C)C(=O)O; 4Amc = not defined here; APAc = not defined here; Apr = not defined here; Dap = NC[C@H](N)C(=O)O; AEEA = NCCOCCOCC(=O)O; Sar = CNCC(=O)O
B1: 3BP-3281 (peptide)
peptide: Ac-VYCE[dNMeA]DWLTWAC-NH2
modifications: linker 3-12 via mXylylene
SMILES: CC(=O)N[C@H](C(=O)N[C@@H](Cc1ccc(O)cc1)C(=O)N[C@H]1CSCc2cccc(c2)CSC[C@@H](C(N)=O)NC(=O)[C@H](C)NC(=O)[C@H](Cc2c[nH]c3ccccc23)NC(=O)[C@H]([C@@H](C)O)NC(=O)[C@H](CC(C)C)NC(=O)[C@H](Cc2c[nH]c3ccccc23)NC(=O)[C@H](CC(=O)O)NC(=O)[C@@H](C)N(C)C(=O)[C@H](CCC(=O)O)NC1=O)C(C)C
B2: 3BP-3283 (peptide)
peptide: Ac-VYCE[dPip]DWLTWAC-NH2
modifications: linker 3-12 via mXylylene
SMILES: CC(=O)N[C@H](C(=O)N[C@@H](Cc1ccc(O)cc1)C(=O)N[C@H]1CSCc2cccc(c2)CSC[C@@H](C(N)=O)NC(=O)[C@H](C)NC(=O)[C@H](Cc2c[nH]c3ccccc23)NC(=O)[C@H]([C@@H](C)O)NC(=O)[C@H](CC(C)C)NC(=O)[C@H](Cc2c[nH]c3ccccc23)NC(=O)[C@H](CC(=O)O)NC(=O)[C@H]2CCCCN2C(=O)[C@H](CCC(=O)O)NC1=O)C(C)C
B3: 3BP-3289 (peptide)
peptide: Ac-VYCE[Sar]D[Trp(5-Cl)]LTWQC-NH2
modifications: linker 3-12 via mXylylene
SMILES: CC(=O)N[C@H](C(=O)N[C@@H](Cc1ccc(O)cc1)C(=O)N[C@H]1CSCc2cccc(c2)CSC[C@@H](C(N)=O)NC(=O)[C@H](CCC(N)=O)NC(=O)[C@H](Cc2c[nH]c3ccccc23)NC(=O)[C@H]([C@@H](C)O)NC(=O)[C@H](CC(C)C)NC(=O)[C@H](Cc2c[nH]c3ccc(Cl)cc23)NC(=O)[C@H](CC(=O)O)NC(=O)CN(C)C(=O)[C@H](CCC(=O)O)NC1=O)C(C)C
B4: 3BP-3859 (peptide)
peptide: {DOTA}-YCE[dP]DWLTWSC-NH2
modifications: linker 2-11 via mXylylene
SMILES: CC(C)C[C@@H]1NC(=O)[C@H](Cc2c[nH]c3ccccc23)NC(=O)[C@H](CC(=O)O)NC(=O)[C@H]2CCCN2C(=O)[C@H](CCC(=O)O)NC(=O)[C@@H](NC(=O)[C@H](Cc2ccc(O)cc2)NC(=O)CN2CCN(CC(=O)O)CCN(CC(=O)O)CCN(CC(=O)O)CC2)CSCc2cccc(c2)CSC[C@@H](C(N)=O)NC(=O)[C@H](CO)NC(=O)[C@H](Cc2c[nH]c3ccccc23)NC(=O)[C@H]([C@@H](C)O)NC1=O
B5: 3BP-4253 (peptide)
peptide: {DOTA}-DCE[dP]DWLTW[Dap]C-NH2
modifications: lactam 10-1; linker 2-11 via mXylylene
SMILES: CC(C)C[C@@H]1NC(=O)[C@H](Cc2c[nH]c3ccccc23)NC(=O)[C@H](CC(=O)O)NC(=O)[C@H]2CCCN2C(=O)[C@H](CCC(=O)O)NC(=O)[C@@H]2CSCc3cccc(c3)CSC[C@@H](C(N)=O)NC(=O)[C@H](CNC(=O)C[C@H](NC(=O)CN3CCN(CC(=O)O)CCN(CC(=O)O)CCN(CC(=O)O)CC3)C(=O)N2)NC(=O)[C@H](Cc2c[nH]c3ccccc23)NC(=O)[C@H]([C@@H](C)O)NC1=O
B6: 3BP-3058 (peptide)
peptide: Ac-VYCEGDWLTWAC-NH2
modifications: linker 3-12 via mXylylene
SMILES: CC(=O)N[C@H](C(=O)N[C@@H](Cc1ccc(O)cc1)C(=O)N[C@H]1CSCc2cccc(c2)CSC[C@@H](C(N)=O)NC(=O)[C@H](C)NC(=O)[C@H](Cc2c[nH]c3ccccc23)NC(=O)[C@H]([C@@H](C)O)NC(=O)[C@H](CC(C)C)NC(=O)[C@H](Cc2c[nH]c3ccccc23)NC(=O)[C@H](CC(=O)O)NC(=O)CNC(=O)[C@H](CCC(=O)O)NC1=O)C(C)C

Target: T1, Fc-fusion protein of human carbonic anhydrase IX (human, UniProt Q16790 38-414)
Experiment: SPR, captured hCAIX-Fc; t1/2 category B: 5.1-15.0 min
Description: (§1) Stock solutions of test compounds were prepared by dissolving each compound in DMSO. DMSO stock solution were diluted 1:1000 in Running Buffer without DMSO. […] SPR binding analyses were performed in Single Cycle Kinetic (SCK) mode at 25° C.
(§2) For each test compound, SPR raw data in the form of resonance units (RU) were plotted as sensorgrams using the Biacore™ T200 control software. The signal from the blank sensorgram was subtracted from that of the test compound sensorgram (blank corrected). The blank corrected sensorgram was corrected for baseline drift by subtracting the sensorgram of a SCK run without the test compound (running buffer only). […] Raw data and fit results were imported as text files in IDBS. The pKD value (negative decadic logarithm of dissociation constant) was calculated in the IDBS excel template.

t1/2 (half-life of the complex, SPR), 5.1 to 15 min:
B1
{DOTA-APAc}-VYCE[dmo]DWLTWSC-NH2 (linker 3-12 via mXylylene; reading uncertain) [3BP-4097]
B2
B3
{DOTA-APAc}-VYCE[dP]DW[Ac6c]TWSC-NH2 (linker 3-12 via mXylylene; reading uncertain) [3BP-3584]
B4
Isovaleryl-YCE[dP]DWLTWE([Apr-AEEA-DOTA])C-NH2 (linker 2-11 via 3MeBn; reading uncertain) [3BP-3740]
Ac-K(DOTA)VYCE[dP]DWLTWSC-NH2 (linker 4-13 via 3MeBn) [3BP-3840]
{DOTA-4Amc}-YCE[dP]DWLTWSC-NH2 (linker 2-11 via mXylylene; reading uncertain) [3BP-3868]
{DOTA-Ttds(3)}-[Nle]YCE[dP]DWLTWSC-NH2 (linker 3-12 via mXylylene) [3BP-3870]
{DOTA(In)}-YCE[dP]KWLEWSC-NH2 (linker 2-11 via mXylylene; lactam 5-8; also: indium complexed by DOTA) [3BP-4053]
{DOTA-APAc}-V[Orn(Me2)]CE[dP]DWLTWSC-NH2 (linker 3-12 via mXylylene; reading uncertain) [3BP-4095]
{DOTA-APAc}-VYC[Orn(Me2)][dP]DWLTWSC-NH2 (linker 3-12 via mXylylene; reading uncertain) [3BP-4096]
{DOTA-APAc}-VYC[hSer][dP]DWLTWSC-NH2 (linker 3-12 via mXylylene; reading uncertain) [3BP-4101]
{DOTA-APAc}-VYCE[dP]D[Phe(3,4-Cl2)]LTWSC-NH2 (linker 3-12 via mXylylene; not fully specified; reading uncertain) [3BP-4133]
{DOTA-APAc}-VYCE[dP]D[Phe(3-CF3)]LTWSC-NH2 (linker 3-12 via mXylylene; not fully specified; reading uncertain) [3BP-4135]
{DOTA-APAc″}-VYCE[dP]D[ξTrp(1-Me)]LTWSC-NH2 (linker 3-12 via mXylylene; not fully specified) [3BP-4144]
{DOTA-APAc″}-VYCE[dP]D[ξTrp(7-Me)]LTWSC-NH2 (linker 3-12 via mXylylene; not fully specified) [3BP-4158]
{DOTA-APAc″}-VYCE[dP]D[Af3(Iva)]LTWSC-NH2 (linker 3-12 via mXylylene) [3BP-4236]
{DOTA-APAc″}-VYCE[dP]D[Af3(MSAc)]LTWSC-NH2 (linker 3-12 via mXylylene) [3BP-4242]
B5
{DOTA-APAc″}-VYCE[dP]D[Af3(HySuc)]LTWSC-NH2 (linker 3-12 via mXylylene) [3BP-4322]
{DOTA-APAc″}-VYCE[dP]D[af3(ac-glu)]LTWSC-NH2 (linker 3-12 via mXylylene; not fully specified) [3BP-4362]
{DOTA-APAc″}-VYCE[dP]D[Af3(Ac-Asp)]LTWSC-NH2 (linker 3-12 via mXylylene) [3BP-4363]
{DOTA-APAc″}-VYCE[dP]D[af3(ac-asp)]LTWSC-NH2 (linker 3-12 via mXylylene; not fully specified) [3BP-4364]

Target: T1, Fc-fusion protein of human carbonic …
Experiment: SPR, captured hCAIX-Fc; pKD category A: >8.0
Description: as §1, §2

pKD, > 8 pkd:
B6
B1
{DOTA-APAc}-VYCE[dmo]DWLTWSC-NH2 (linker 3-12 via mXylylene; reading uncertain) [3BP-4097]
B2
B3
{DOTA-APAc}-VYCE[dP]DW[Ac6c]TWSC-NH2 (linker 3-12 via mXylylene; reading uncertain) [3BP-3584]
B4
Isovaleryl-YCE[dP]DWLTWE([Apr-AEEA-DOTA])C-NH2 (linker 2-11 via 3MeBn; reading uncertain) [3BP-3740]
Ac-K(DOTA)VYCE[dP]DWLTWSC-NH2 (linker 4-13 via 3MeBn) [3BP-3840]
{DOTA-4Amc}-YCE[dP]DWLTWSC-NH2 (linker 2-11 via mXylylene; reading uncertain) [3BP-3868]
{DOTA-Ttds(3)}-[Nle]YCE[dP]DWLTWSC-NH2 (linker 3-12 via mXylylene) [3BP-3870]
{DOTA(In)}-YCE[dP]KWLEWSC-NH2 (linker 2-11 via mXylylene; lactam 5-8; also: indium complexed by DOTA) [3BP-4053]
{DOTA-APAc}-V[Orn(Me2)]CE[dP]DWLTWSC-NH2 (linker 3-12 via mXylylene; reading uncertain) [3BP-4095]
{DOTA-APAc}-VYC[Orn(Me2)][dP]DWLTWSC-NH2 (linker 3-12 via mXylylene; reading uncertain) [3BP-4096]
{DOTA-APAc}-VYC[hSer][dP]DWLTWSC-NH2 (linker 3-12 via mXylylene; reading uncertain) [3BP-4101]
{DOTA-APAc}-VYCE[dP]D[Phe(3,4-Cl2)]LTWSC-NH2 (linker 3-12 via mXylylene; not fully specified; reading uncertain) [3BP-4133]
{DOTA-APAc}-VYCE[dP]D[Phe(3-CF3)]LTWSC-NH2 (linker 3-12 via mXylylene; not fully specified; reading uncertain) [3BP-4135]
{DOTA-APAc″}-VYCE[dP]D[ξTrp(1-Me)]LTWSC-NH2 (linker 3-12 via mXylylene; not fully specified) [3BP-4144]
{DOTA-APAc″}-VYCE[dP]D[ξTrp(7-Me)]LTWSC-NH2 (linker 3-12 via mXylylene; not fully specified) [3BP-4158]
{DOTA-APAc″}-VYCE[dP]D[Af3(Iva)]LTWSC-NH2 (linker 3-12 via mXylylene) [3BP-4236]
{DOTA-APAc″}-VYCE[dP]D[Af3(MSAc)]LTWSC-NH2 (linker 3-12 via mXylylene) [3BP-4242]
B5
{DOTA-APAc″}-VYCE[dP]D[Af3(HySuc)]LTWSC-NH2 (linker 3-12 via mXylylene) [3BP-4322]
{DOTA-APAc″}-VYCE[dP]D[af3(ac-glu)]LTWSC-NH2 (linker 3-12 via mXylylene; not fully specified) [3BP-4362]
{DOTA-APAc″}-VYCE[dP]D[Af3(Ac-Asp)]LTWSC-NH2 (linker 3-12 via mXylylene) [3BP-4363]
{DOTA-APAc″}-VYCE[dP]D[af3(ac-asp)]LTWSC-NH2 (linker 3-12 via mXylylene; not fully specified) [3BP-4364]

Target: T1, Fc-fusion protein of human carbonic …
Experiment: SPR, captured hCAIX-Fc; t1/2 category C: 2.1-5.0 min
Description: as §1, §2

t1/2 (half-life of the complex, SPR), 2.1 to 5 min:
B6
